Data published in article PMC12207370, “Macrocyclic Peptide Probes for Immunomodulatory Protein CD59: Potent Modulators of Bacterial Toxin Activity and Antibody‐Dependent Cytotoxicity” (Angewandte Chemie (International Ed. in English), 2025).

Molecular target: T1, biotinylated CD59 (Homo sapiens, UniProt P13987)
T1 construct: Recombinant soluble human CD59 with an additional C-terminal cysteine residue
T1 sequence (P13987 26-102 limits assumed): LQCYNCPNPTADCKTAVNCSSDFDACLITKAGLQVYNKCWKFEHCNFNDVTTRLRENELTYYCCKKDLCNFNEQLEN
Assay: mRNA-display cyclic peptide screen against CD59-biotin, NGS abundance after 6th selection round
Conditions: for Counts (raw counts for peptide sequence), Seq I: NGS sample Seq I; for Counts (raw counts for peptide sequence), Seq I / Counts (raw counts for peptide sequence), Seq II / Counts Seq I / Counts Seq II: sheet R6 (6th selection round); for Counts (raw counts for peptide sequence), Seq II: NGS sample Seq II; for Percentage of the pool, averaged across the two sequencing samples: average of Seq I and Seq II; for Percentage of the pool, averaged across the two sequencing samples / Percentage of the pool, Seq I / Percentage of the pool, Seq II / Percentage Seq I / Percentage Seq II / Percentage Average: sheet R6; for Percentage of the pool, Seq I: counts normalised by total counts of NGS sample Seq I; for Percentage of the pool, Seq II: counts normalised by total counts of NGS sample Seq II; for Percentage Seq I: counts normalised by total counts of sample Seq I; for Percentage Seq I / Percentage Seq II: percentage of the pool; for Percentage Seq II: counts normalised by total counts of sample Seq II; for Percentage Average: percentage of the pool averaged across the two sequencing samples; for Counts Seq I / Counts Seq II: raw NGS counts of peptide sequence; for Counts Seq I: sequencing sample Seq I; for Counts Seq II: sequencing sample Seq II
Method in brief: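 Peptide–mRNA fusions were made by in vitro translation with a customised PURE express kit. The kit lacked release factor 1 and methionine and was supplemented with […] initiator tRNA carrying N-chloroacetyl-d-tyrosine. Thioether macrocycles were formed, then enriched and amplified over iterative rounds on CD59-biotin immobilised on streptavidin beads. NGS read counts per sequence were recorded after the 6th selection round.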

| Substance | Counts (raw counts for peptide sequence), Seq I | Counts (raw counts for peptide sequence), Seq II | Percentage of the pool, averaged across the two sequencing samples [%] | Percentage of the pool, Seq I [%] | Percentage of the pool, Seq II [%] | Percentage Seq I [%] | Percentage Seq II [%] | Percentage Average [%] | Counts Seq I | Counts Seq II |
| --- | --- | --- | --- | --- | --- | --- | --- | --- | --- | --- |
| HVFGNRSLTRG | 93 | 5 | 0.016 | 0.021 | 0.012 |  |  |  |  |  |
| SAWGNRQIQY+ |  |  |  |  |  | 0.026 | 0.016 | 0.021 | 114 | 7 |
| ISGGRNWRAG | 65 | 6 | 0.014 | 0.015 | 0.014 |  |  |  |  |  |
| HVYGNRSFTRG | 97 | 5 | 0.017 | 0.022 | 0.012 |  |  |  |  |  |
| GRLNECHVIWP |  |  |  |  |  | 0.317 | 0.302 | 0.310 | 1389 | 130 |
| CFVNRLSDSLSL |  |  |  |  |  | 0.048 | 0.070 | 0.059 | 212 | 30 |
| CFAKRIVALHST | 54 | 7 | 0.014 | 0.012 | 0.016 |  |  |  |  |  |
| ASWLPSPCKFS | 73 | 4 | 0.013 | 0.017 | 0.009 |  |  |  |  |  |
| YSCPDWVRGSRT | 36 | 6 | 0.011 | 0.008 | 0.014 |  |  |  |  |  |
| CFTGRLTIDAV | 26 | 6 | 0.010 | 0.006 | 0.014 |  |  |  |  |  |
| CFAGRLAIDAV | 54 | 8 | 0.015 | 0.012 | 0.019 |  |  |  |  |  |
| CFSHRPGPSI |  |  |  |  |  | 0.147 | 0.132 | 0.140 | 642 | 57 |
| LGGRGCFRPCSAAAAAAARTGGG |  |  |  |  |  | 0.050 | 0.042 | 0.046 | 220 | 18 |
| VVHGGKDYQWS | 64 | 5 | 0.013 | 0.015 | 0.012 |  |  |  |  |  |
| CFKKRLDTVST |  |  |  |  |  | 0.021 | 0.016 | 0.019 | 91 | 7 |
| QWNRWYGMDER |  |  |  |  |  | 0.084 | 0.097 | 0.091 | 369 | 42 |
| TLSTNRDLIRLPAAAAAAARTGGG | 63 | 7 | 0.015 | 0.014 | 0.016 |  |  |  |  |  |
| CYGGRSFIYAWS | 47 | 6 | 0.012 | 0.011 | 0.014 |  |  |  |  |  |
| CFSKRIAPGAQ |  |  |  |  |  | 0.020 | 0.019 | 0.019 | 88 | 8 |
| FVRGDLYSALG | 80 | 6 | 0.016 | 0.018 | 0.014 |  |  |  |  |  |
| CFARRVNNSSL |  |  |  |  |  | 0.031 | 0.028 | 0.030 | 137 | 12 |
| WVYGSRYWRSI |  |  |  |  |  | 0.030 | 0.014 | 0.022 | 132 | 6 |
| SAWGNRQTQYY |  |  |  |  |  | 1.151 | 1.160 | 1.156 | 5037 | 500 |

| Substance | Counts (raw counts for peptide sequence), Seq I | Counts (raw counts for peptide sequence), Seq II | Percentage of the pool, averaged across the two sequencing samples [%] | Percentage of the pool, Seq I [%] | Percentage of the pool, Seq II [%] | Percentage Seq I [%] | Percentage Seq II [%] | Percentage Average [%] | Counts Seq I | Counts Seq II |
| --- | --- | --- | --- | --- | --- | --- | --- | --- | --- | --- |
| CFANRLYGSDSR |  |  |  |  |  | 0.040 | 0.039 | 0.040 | 177 | 17 |
| WRDRFDQCVR |  |  |  |  |  | 0.039 | 0.053 | 0.046 | 169 | 23 |
| CAWGNRHIAYY |  |  |  |  |  | 0.183 | 0.195 | 0.189 | 800 | 84 |
| WTRGSKDYARG | 49 | 5 | 0.011 | 0.011 | 0.012 |  |  |  |  |  |
| CFVNRLGSAESR | 63 | 9 | 0.018 | 0.014 | 0.021 |  |  |  |  |  |
| CYGGRTFIYAWL | 35 | 8 | 0.013 | 0.008 | 0.019 |  |  |  |  |  |
| CFSARTDSSGT |  |  |  |  |  | 0.053 | 0.039 | 0.046 | 231 | 17 |
| CFAHRITDPNTQ |  |  |  |  |  | 0.027 | 0.014 | 0.020 | 117 | 6 |
| AISGGRDYTRG | 43 | 6 | 0.012 | 0.010 | 0.014 |  |  |  |  |  |
| SIRGGRDYTRG |  |  |  |  |  | 0.110 | 0.128 | 0.119 | 482 | 55 |
| YLSGSSNFARG | 48 | 7 | 0.014 | 0.011 | 0.016 |  |  |  |  |  |
| DCWVRGSRNYT | 62 | 6 | 0.014 | 0.014 | 0.014 |  |  |  |  |  |
| SAWGDRQIQYY | 64 | 6 | 0.014 | 0.015 | 0.014 |  |  |  |  |  |
| SARGNRQIQYY |  |  |  |  |  | 0.026 | 0.028 | 0.027 | 114 | 12 |
| FVTGSRDHTRG |  |  |  |  |  | 0.074 | 0.053 | 0.063 | 322 | 23 |
| SYGGRTFIYAWS | 62 | 5 | 0.013 | 0.014 | 0.012 |  |  |  |  |  |
| RYGGRTFIYAWS |  |  |  |  |  | 0.025 | 0.026 | 0.025 | 111 | 11 |
| WTCHLRHDGPHA |  |  |  |  |  | 1.997 | 2.114 | 2.056 | 8737 | 911 |
| HCWVRGSRSYT |  |  |  |  |  | 0.022 | 0.021 | 0.022 | 97 | 9 |
| CFSRRLTAGAI |  |  |  |  |  | 2.075 | 2.091 | 2.083 | 9078 | 901 |
| DPWCTPFSNVT |  |  |  |  |  | 0.186 | 0.209 | 0.198 | 815 | 90 |
| HCWVRGGRNYT |  |  |  |  |  | 0.024 | 0.014 | 0.019 | 104 | 6 |
